The results in this text go back to patent US12679878B2, “CRF2 receptor agonists and their use in therapy” (SANOFI, priority 2020, dated 2026).

For this assay, the target named is human corticotropin-releasing factor 2α (CRF2 α receptor) (human), Q13324. Nature of the assay: cell-based or functional assay.

Starred links: 1 amine or outer side, 2 acyl side, 3 side chain; linkers in the order of their positions; H or OH if unused. Non-standard residues stand in square brackets, D forms with d. Groups on a side chain read outwards from the residue. No end group written: not given here. *: point of attachment. C20 diacid = O=C(O)CCCCCCCCCCCCCCCCCCC(=O)*; C18 diacid = O=C(O)CCCCCCCCCCCCCCCCC(=O)*; γGlu = O=C(O)[C@H](CCC(=O)[*:2])N[*:1]; Palmitoyl = CCCCCCCCCCCCCCCC(=O)*; AEEA = NCCOCCOCC(=O)O; Aib = CC(C)(N)C(=O)O

human corticotropin-releasing factor 2α (CRF2 α receptor) (human), Q13324, sequence (Q13324 20-411): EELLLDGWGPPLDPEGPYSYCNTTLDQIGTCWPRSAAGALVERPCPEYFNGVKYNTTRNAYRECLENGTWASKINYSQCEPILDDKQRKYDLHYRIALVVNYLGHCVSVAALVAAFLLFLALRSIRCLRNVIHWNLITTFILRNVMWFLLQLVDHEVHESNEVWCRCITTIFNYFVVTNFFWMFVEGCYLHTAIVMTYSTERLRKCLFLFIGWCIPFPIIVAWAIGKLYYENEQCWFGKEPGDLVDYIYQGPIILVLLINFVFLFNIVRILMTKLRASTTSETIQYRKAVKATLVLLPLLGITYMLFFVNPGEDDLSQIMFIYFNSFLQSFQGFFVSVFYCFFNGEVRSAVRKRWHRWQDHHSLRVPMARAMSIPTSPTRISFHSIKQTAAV

B1: SEQ ID NO: 81 (peptide)
peptide: IVLSLDVPIKLK([AEEA-AEEA-γGlu-C20 diacid])QILLEQEKQK[Aib]QREQAETNKQILAQV-NH2
modifications: N-terminus assumed
SMILES: CC[C@H](C)[C@H](N)C(=O)N[C@H](C(=O)N[C@@H](CC(C)C)C(=O)N[C@@H](CO)C(=O)N[C@@H](CC(C)C)C(=O)N[C@@H](CC(=O)O)C(=O)N[C@H](C(=O)N1CCC[C@H]1C(=O)N[C@H](C(=O)N[C@@H](CCCCN)C(=O)N[C@@H](CC(C)C)C(=O)N[C@@H](CCCCNC(=O)COCCOCCNC(=O)COCCOCCNC(=O)CC[C@H](NC(=O)CCCCCCCCCCCCCCCCCCC(=O)O)C(=O)O)C(=O)N[C@@H](CCC(N)=O)C(=O)N[C@H](C(=O)N[C@@H](CC(C)C)C(=O)N[C@@H](CC(C)C)C(=O)N[C@@H](CCC(=O)O)C(=O)N[C@@H](CCC(N)=O)C(=O)N[C@@H](CCC(=O)O)C(=O)N[C@@H](CCCCN)C(=O)N[C@@H](CCC(N)=O)C(=O)N[C@@H](CCCCN)C(=O)NC(C)(C)C(=O)N[C@@H](CCC(N)=O)C(=O)N[C@@H](CCCNC(=N)N)C(=O)N[C@@H](CCC(=O)O)C(=O)N[C@@H](CCC(N)=O)C(=O)N[C@@H](C)C(=O)N[C@@H](CCC(=O)O)C(=O)N[C@H](C(=O)N[C@@H](CC(N)=O)C(=O)N[C@@H](CCCCN)C(=O)N[C@@H](CCC(N)=O)C(=O)N[C@H](C(=O)N[C@@H](CC(C)C)C(=O)N[C@@H](C)C(=O)N[C@@H](CCC(N)=O)C(=O)N[C@H](C(N)=O)C(C)C)[C@@H](C)CC)[C@@H](C)O)[C@@H](C)CC)[C@@H](C)CC)C(C)C)C(C)C
As to B1, the EC50 [nM], 0% HSA came to 0.14 nM and the EC50 [nM], 0.1% HSA worked out at 18.5 nM.

B2: SEQ ID NO: 80 (peptide)
peptide: IVLSLDVPTKLK([AEEA-AEEA-γGlu-C20 diacid])QILLEQERQKKQREQAETN[Aib]QILAQV-NH2
modifications: N-terminus assumed
SMILES: CC[C@H](C)[C@H](N)C(=O)N[C@H](C(=O)N[C@@H](CC(C)C)C(=O)N[C@@H](CO)C(=O)N[C@@H](CC(C)C)C(=O)N[C@@H](CC(=O)O)C(=O)N[C@H](C(=O)N1CCC[C@H]1C(=O)N[C@H](C(=O)N[C@@H](CCCCN)C(=O)N[C@@H](CC(C)C)C(=O)N[C@@H](CCCCNC(=O)COCCOCCNC(=O)COCCOCCNC(=O)CC[C@H](NC(=O)CCCCCCCCCCCCCCCCCCC(=O)O)C(=O)O)C(=O)N[C@@H](CCC(N)=O)C(=O)N[C@H](C(=O)N[C@@H](CC(C)C)C(=O)N[C@@H](CC(C)C)C(=O)N[C@@H](CCC(=O)O)C(=O)N[C@@H](CCC(N)=O)C(=O)N[C@@H](CCC(=O)O)C(=O)N[C@@H](CCCNC(=N)N)C(=O)N[C@@H](CCC(N)=O)C(=O)N[C@@H](CCCCN)C(=O)N[C@@H](CCCCN)C(=O)N[C@@H](CCC(N)=O)C(=O)N[C@@H](CCCNC(=N)N)C(=O)N[C@@H](CCC(=O)O)C(=O)N[C@@H](CCC(N)=O)C(=O)N[C@@H](C)C(=O)N[C@@H](CCC(=O)O)C(=O)N[C@H](C(=O)N[C@@H](CC(N)=O)C(=O)NC(C)(C)C(=O)N[C@@H](CCC(N)=O)C(=O)N[C@H](C(=O)N[C@@H](CC(C)C)C(=O)N[C@@H](C)C(=O)N[C@@H](CCC(N)=O)C(=O)N[C@H](C(N)=O)C(C)C)[C@@H](C)CC)[C@@H](C)O)[C@@H](C)CC)[C@@H](C)O)C(C)C)C(C)C
B2 displayed an EC50 [nM], 0% HSA of 0.9 nM and an EC50 [nM], 0.1% HSA of 92.5 nM.

B3: SEQ ID NO: 82 (peptide)
peptide: IVLSLDVPTKLK([AEEA-AEEA-γGlu-C18 diacid])QILLKQERQKK[Aib]REQAETNVRILERV-NH2
modifications: N-terminus assumed
SMILES: CC[C@H](C)[C@H](N)C(=O)N[C@H](C(=O)N[C@@H](CC(C)C)C(=O)N[C@@H](CO)C(=O)N[C@@H](CC(C)C)C(=O)N[C@@H](CC(=O)O)C(=O)N[C@H](C(=O)N1CCC[C@H]1C(=O)N[C@H](C(=O)N[C@@H](CCCCN)C(=O)N[C@@H](CC(C)C)C(=O)N[C@@H](CCCCNC(=O)COCCOCCNC(=O)COCCOCCNC(=O)CC[C@H](NC(=O)CCCCCCCCCCCCCCCCC(=O)O)C(=O)O)C(=O)N[C@@H](CCC(N)=O)C(=O)N[C@H](C(=O)N[C@@H](CC(C)C)C(=O)N[C@@H](CC(C)C)C(=O)N[C@@H](CCCCN)C(=O)N[C@@H](CCC(N)=O)C(=O)N[C@@H](CCC(=O)O)C(=O)N[C@@H](CCCNC(=N)N)C(=O)N[C@@H](CCC(N)=O)C(=O)N[C@@H](CCCCN)C(=O)N[C@@H](CCCCN)C(=O)NC(C)(C)C(=O)N[C@@H](CCCNC(=N)N)C(=O)N[C@@H](CCC(=O)O)C(=O)N[C@@H](CCC(N)=O)C(=O)N[C@@H](C)C(=O)N[C@@H](CCC(=O)O)C(=O)N[C@H](C(=O)N[C@@H](CC(N)=O)C(=O)N[C@H](C(=O)N[C@@H](CCCNC(=N)N)C(=O)N[C@H](C(=O)N[C@@H](CC(C)C)C(=O)N[C@@H](CCC(=O)O)C(=O)N[C@@H](CCCNC(=N)N)C(=O)N[C@H](C(N)=O)C(C)C)[C@@H](C)CC)C(C)C)[C@@H](C)O)[C@@H](C)CC)[C@@H](C)O)C(C)C)C(C)C
As for B3, the EC50 [nM], 0% HSA is 10.1 nM.

B4: SEQ ID NO: 79 (peptide)
peptide: IVLSLDVPIKLK([AEEA-AEEA-γGlu-C18 diacid])QILLEQEKQK[Aib]QREQAETNKQILAQV-NH2
modifications: N-terminus assumed
SMILES: CC[C@H](C)[C@H](N)C(=O)N[C@H](C(=O)N[C@@H](CC(C)C)C(=O)N[C@@H](CO)C(=O)N[C@@H](CC(C)C)C(=O)N[C@@H](CC(=O)O)C(=O)N[C@H](C(=O)N1CCC[C@H]1C(=O)N[C@H](C(=O)N[C@@H](CCCCN)C(=O)N[C@@H](CC(C)C)C(=O)N[C@@H](CCCCNC(=O)COCCOCCNC(=O)COCCOCCNC(=O)CC[C@H](NC(=O)CCCCCCCCCCCCCCCCC(=O)O)C(=O)O)C(=O)N[C@@H](CCC(N)=O)C(=O)N[C@H](C(=O)N[C@@H](CC(C)C)C(=O)N[C@@H](CC(C)C)C(=O)N[C@@H](CCC(=O)O)C(=O)N[C@@H](CCC(N)=O)C(=O)N[C@@H](CCC(=O)O)C(=O)N[C@@H](CCCCN)C(=O)N[C@@H](CCC(N)=O)C(=O)N[C@@H](CCCCN)C(=O)NC(C)(C)C(=O)N[C@@H](CCC(N)=O)C(=O)N[C@@H](CCCNC(=N)N)C(=O)N[C@@H](CCC(=O)O)C(=O)N[C@@H](CCC(N)=O)C(=O)N[C@@H](C)C(=O)N[C@@H](CCC(=O)O)C(=O)N[C@H](C(=O)N[C@@H](CC(N)=O)C(=O)N[C@@H](CCCCN)C(=O)N[C@@H](CCC(N)=O)C(=O)N[C@H](C(=O)N[C@@H](CC(C)C)C(=O)N[C@@H](C)C(=O)N[C@@H](CCC(N)=O)C(=O)N[C@H](C(N)=O)C(C)C)[C@@H](C)CC)[C@@H](C)O)[C@@H](C)CC)[C@@H](C)CC)C(C)C)C(C)C
Turning to B4, the EC50 [nM], 0% HSA is 0.46 nM.

B5: SEQ ID NO: 78 (peptide)
peptide: IVLSLDVPTKLK([AEEA-AEEA-γGlu-C18 diacid])QILLEQERQKKQREQAETN[Aib]QILAQV-NH2
modifications: N-terminus assumed
SMILES: CC[C@H](C)[C@H](N)C(=O)N[C@H](C(=O)N[C@@H](CC(C)C)C(=O)N[C@@H](CO)C(=O)N[C@@H](CC(C)C)C(=O)N[C@@H](CC(=O)O)C(=O)N[C@H](C(=O)N1CCC[C@H]1C(=O)N[C@H](C(=O)N[C@@H](CCCCN)C(=O)N[C@@H](CC(C)C)C(=O)N[C@@H](CCCCNC(=O)COCCOCCNC(=O)COCCOCCNC(=O)CC[C@H](NC(=O)CCCCCCCCCCCCCCCCC(=O)O)C(=O)O)C(=O)N[C@@H](CCC(N)=O)C(=O)N[C@H](C(=O)N[C@@H](CC(C)C)C(=O)N[C@@H](CC(C)C)C(=O)N[C@@H](CCC(=O)O)C(=O)N[C@@H](CCC(N)=O)C(=O)N[C@@H](CCC(=O)O)C(=O)N[C@@H](CCCNC(=N)N)C(=O)N[C@@H](CCC(N)=O)C(=O)N[C@@H](CCCCN)C(=O)N[C@@H](CCCCN)C(=O)N[C@@H](CCC(N)=O)C(=O)N[C@@H](CCCNC(=N)N)C(=O)N[C@@H](CCC(=O)O)C(=O)N[C@@H](CCC(N)=O)C(=O)N[C@@H](C)C(=O)N[C@@H](CCC(=O)O)C(=O)N[C@H](C(=O)N[C@@H](CC(N)=O)C(=O)NC(C)(C)C(=O)N[C@@H](CCC(N)=O)C(=O)N[C@H](C(=O)N[C@@H](CC(C)C)C(=O)N[C@@H](C)C(=O)N[C@@H](CCC(N)=O)C(=O)N[C@H](C(N)=O)C(C)C)[C@@H](C)CC)[C@@H](C)O)[C@@H](C)CC)[C@@H](C)O)C(C)C)C(C)C
B5 yielded an EC50 [nM], 0% HSA of 10.6 nM.

B6: SEQ ID NO: 5 (peptide)
peptide: IVLSLDVPIGLK([γGlu-Palmitoyl])QKLLKQQRQRKERQQAETNARILARV-NH2
modifications: N-terminus assumed
SMILES: CCCCCCCCCCCCCCCC(=O)N[C@@H](CCC(=O)NCCCC[C@H](NC(=O)[C@H](CC(C)C)NC(=O)CNC(=O)[C@@H](NC(=O)[C@@H]1CCCN1C(=O)[C@@H](NC(=O)[C@H](CC(=O)O)NC(=O)[C@H](CC(C)C)NC(=O)[C@H](CO)NC(=O)[C@H](CC(C)C)NC(=O)[C@@H](NC(=O)[C@@H](N)[C@@H](C)CC)C(C)C)C(C)C)[C@@H](C)CC)C(=O)N[C@@H](CCC(N)=O)C(=O)N[C@@H](CCCCN)C(=O)N[C@@H](CC(C)C)C(=O)N[C@@H](CC(C)C)C(=O)N[C@@H](CCCCN)C(=O)N[C@@H](CCC(N)=O)C(=O)N[C@@H](CCC(N)=O)C(=O)N[C@@H](CCCNC(=N)N)C(=O)N[C@@H](CCC(N)=O)C(=O)N[C@@H](CCCNC(=N)N)C(=O)N[C@@H](CCCCN)C(=O)N[C@@H](CCC(=O)O)C(=O)N[C@@H](CCCNC(=N)N)C(=O)N[C@@H](CCC(N)=O)C(=O)N[C@@H](CCC(N)=O)C(=O)N[C@@H](C)C(=O)N[C@@H](CCC(=O)O)C(=O)N[C@H](C(=O)N[C@@H](CC(N)=O)C(=O)N[C@@H](C)C(=O)N[C@@H](CCCNC(=N)N)C(=O)N[C@H](C(=O)N[C@@H](CC(C)C)C(=O)N[C@@H](C)C(=O)N[C@@H](CCCNC(=N)N)C(=O)N[C@H](C(N)=O)C(C)C)[C@@H](C)CC)[C@@H](C)O)C(=O)O
The molecule B6 displayed an EC50 [nM], 0% HSA of 0.04 nM.
